From patent US20240342244A1, “Isthmin Protein Therapeutics for the Treatment of Non-Alcoholic Fatty Liver Disease” (The Board of Trustees of the Leland Stanford Junior …, priority 2021, published 2024)

How the values were obtained:
GLUT4 = GLUT4 translocation to the plasma membrane in primary adipocytes (immunostaining, fractionation); format: cell-based, mouse; conditions: 100 nM
Protocol: Biochemical analyses. Plasma insulin levels were measured using the Ultra-Sensitive Mouse Insulin ELISA kit (Crystal Chem Inc #90080). Plasma triglycerides were measured with Infinity triglyceride measurement kit (Thermo #TR22421) and tissue triglycerides were measured with a Triglyceride Colorimetric Assay Kit (Cayman #10010303). Lipolysis was measured in day 5 differentiated adipocytes after 4 hours of protein treatment using a glycerol release assay according to the protocol provided by the manufacturer (Abcam #ab133130). Plasma membrane protein extractions were performed according to the manufacturer's protocol (Abcam #ab65400).
Immunocytochemistry. Primary mouse preadipocytes were seeded onto collagen-coated 22 mm×22 mm coverslips and differentiated using the method above. On day 8, differentiated adipocytes were washed with PBS and starved in 0.5% BSA in KRH buffer (50 mM HEPES, 136 mM NaCl, 1.25 mM MgSO4, 1.25 mM CaCl2, 4.7 mM KCl, pH 7.4) for 3.5 h. Cells were treated with insulin or ISM1 for 30 min, followed by three washes with cold PBS. Cells were fixed with 4% PFA in PBS for 15 min at room temperature. After blocking with 2% BSA, 5% goat serum, 0.2% Triton-X in PBS for 1 hr, cells were incubated with diluted primary antibody at 4° C. overnight. The next day, cells were washed and incubated with secondary antibody on ice for 1 hr. Cells were imaged using confocal microscope (Leica TCS SP8). Hoechst (#33342, thermo fisher) was used as counterstain.

NAFLD mice = experiment: Therapeutic administration for 14 days in mice with established NAFLD; format: in vivo, mouse
Protocol: Therapeutic ISM1 recombinant protein administration in vivo. All pharmacologic studies using recombinant ISM1 protein were performed in mice with established diet-induced obesity or non-alcoholic fatty liver disease (NAFLD). For all experiments, male C57BL/6J mice purchased from Jax were fed either a high-fat diet (#D12492, Research Diets) or a NAFLD diet (#D09100310, Research Diets) prior to ISM1 protein injections. In all experiments, mice were mock injected with saline for three days prior to protein or drug injections to prevent stress-induced weight loss. Mice were I.P. injected with vehicle (saline) or indicated doses of ISM1 protein diluted in saline. For the 14-day experiments in NAFLD mice, 7-weeks old mice were fed with NAFLD diet for 3 weeks and then mock injected with saline for 3 days prior to protein injections. The induction of lipid accumulation with NAFLD diet was verified by the significant increase in hepatic lipid levels compared with mice on chow diet at the same time point. NAFLD mice were then daily I.P. injected with either vehicle (saline containing 5% DMSO and 10% Kolliphor) or indicated doses of ISM1 protein (500 μg/kg or 5 mg/kg) or with FXR agonist (30 mg/kg, GW4064, Sigma-Aldrich, #G5172) diluted in vehicle (saline containing 5% DMSO and 10% Kolliphor). For the 21-day experiments in HFD mice, mice were mock injected with saline for three days prior to protein injections. Mice were then daily I.P. injected with either vehicle (saline) or 5 mg/kg of ISM1 protein diluted in saline. Metformin (100 mg/kg, Sigma, #317240) was diluted in saline and daily administered by oral gavage. All groups received control injections by I.P. and oral gavage. At the end of the experiments, mice and tissue weights were recorded. Tissues and plasma were collected and frozen for further analyses.
Immunohistochemistry. For H&E staining, livers were formalin-fixed, paraffin-embedded, and sectioned at 6 μm. For hematoxylin and eosin (H&E) staining, sections were deparaffinized and […] with xylenes and ethanol. Briefly, slides were stained with hematoxylin, washed with water and 95% ethanol, and stained with eosin for 30 min. Sections were then incubated with ethanol and xylene, and mounted with mounting medium. For Oil red O stainings, frozen liver tissue slides were fixed with 3% formalin in PBS, washed twice with water, incubated with 60% isopropanol for 5 min and then incubated with Oil Red O solution (3:2 ratio of Oil Red O:H2O) for 20 min. […] Digital images were captured with a Nikon Digital Sight DS-Fi1 color camera and NIS-Elements acquisition software.

[1] = 0.5 mg/kg daily for 14 days, vs vehicle-treated NAFLD mice
[2] = 5 mg/kg ISM1 vs 30 mg/kg GW4064, 14 days
[3] = 5 mg/kg daily for 14 days, vs vehicle-treated NAFLD mice

B1: ISM1: recombinant mouse ISM1 protein with a C-terminal myc-his tag generated in mammalian HEK 293 Expi cells (protein, UniProt A2ATD1 30-454, looked up)
Isthmin-1: SDRQDAAAGNNNLNLESDSTSETSFPLSKEAPEEHQVVHQPFPRQRFPPETGHPSLQRDGPRSFLLDLPNFPDLSKADINGQNPNIQVTIEVVDGPDSEAEKDQHPENKPSWSLPAPDWRAWWQRSLSLARTNSGDQDDKYDSTSDDSNFLSVPRGWDRPAPGHRTFETKEQPEYDSTDGEGDWSLWSVCSVTCGNGNQKRTRSCGYACIATESRTCDRPNCPGIEDTFRTAATEVSLLAGSEEFNATKLFEVDMDSCERWMSCKSEFLKKYMHKVINDLPSCPCSYPTEVAYSTADIFDRIKRKDFRWKDASGPKEKLEIYKPTARYCIRSMLSLESTTLAAQHCCYGDNMQLITRGKGAGTPNLISTEFSAELHYKVDVLPWIICKGDWSRYNEARPPNNGQKCTESPSDEDYIKQFQEAREY
modifications: C-terminal myc-His tag
notes: recombinant mouse ISM1 protein with a C-terminal myc-his tag generated in mammalian HEK 293 Expi cells
GLUT4; 4 h
  GLUT4 in plasma membrane fraction (biochemical fractionation): translocation of GLUT4 to the plasma membrane
GLUT4; compared with control cells
  GLUT4 at cell surface (immunostaining, confocal microscopy): higher levels of GLUT4 at cell surface
NAFLD mice; [1]
  fed blood glucose reduced: not
  liver weights reduced: not
NAFLD mice; [2]
  effect on liver weights, blood glucose and histological signs of steatosis compared with benchmark: as potent as the FXR agonist GW4064 treatment
  reversal of hepatic steatosis compared with benchmark: performs equal to the FXR agonist GW4064
NAFLD mice; [3]
  fed blood glucose: reduced
  liver weights: reduced liver weights
NAFLD mice; 5 mg/kg, 14 days
  hepatic Fatty Acid Synthase (FAS) protein levels: reduced hepatic Fatty Acid Synthase (FAS) protein levels
  liver Oil red O staining: reduced Oil red O staining
NAFLD mice; 5 mg/kg, 14 days, vs vehicle treated NAFLD mice
  gross liver morphology: obvious gross morphological changes in liver size and color
